Results from paper PMC5927996.

Tests used:
fibrinogen = fibrinogen (UniProt P02671); assay: SPR
collagen = assay: cell adhesion assay
fibrinogen, P02671 = biological target: T1, fibrinogen, P02671; assay: cell adhesion assay; settings: remark: other sources report otherwise
T1 chain 1: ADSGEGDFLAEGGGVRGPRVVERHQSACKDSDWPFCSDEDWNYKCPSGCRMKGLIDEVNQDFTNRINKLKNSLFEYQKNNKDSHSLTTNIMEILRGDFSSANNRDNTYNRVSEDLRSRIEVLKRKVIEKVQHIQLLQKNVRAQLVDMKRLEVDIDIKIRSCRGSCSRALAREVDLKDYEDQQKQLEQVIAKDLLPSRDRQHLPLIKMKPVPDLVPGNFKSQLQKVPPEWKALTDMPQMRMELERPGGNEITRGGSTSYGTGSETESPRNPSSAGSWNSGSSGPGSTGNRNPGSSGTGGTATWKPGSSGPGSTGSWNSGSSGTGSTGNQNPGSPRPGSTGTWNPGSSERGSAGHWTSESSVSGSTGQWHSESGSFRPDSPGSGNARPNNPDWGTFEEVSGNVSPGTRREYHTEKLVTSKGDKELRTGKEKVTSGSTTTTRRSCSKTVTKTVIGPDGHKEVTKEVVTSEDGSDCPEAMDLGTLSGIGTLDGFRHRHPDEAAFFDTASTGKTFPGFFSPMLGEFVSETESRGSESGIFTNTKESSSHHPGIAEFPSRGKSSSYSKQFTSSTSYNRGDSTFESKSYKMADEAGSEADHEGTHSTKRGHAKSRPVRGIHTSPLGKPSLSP
T1 chain 2: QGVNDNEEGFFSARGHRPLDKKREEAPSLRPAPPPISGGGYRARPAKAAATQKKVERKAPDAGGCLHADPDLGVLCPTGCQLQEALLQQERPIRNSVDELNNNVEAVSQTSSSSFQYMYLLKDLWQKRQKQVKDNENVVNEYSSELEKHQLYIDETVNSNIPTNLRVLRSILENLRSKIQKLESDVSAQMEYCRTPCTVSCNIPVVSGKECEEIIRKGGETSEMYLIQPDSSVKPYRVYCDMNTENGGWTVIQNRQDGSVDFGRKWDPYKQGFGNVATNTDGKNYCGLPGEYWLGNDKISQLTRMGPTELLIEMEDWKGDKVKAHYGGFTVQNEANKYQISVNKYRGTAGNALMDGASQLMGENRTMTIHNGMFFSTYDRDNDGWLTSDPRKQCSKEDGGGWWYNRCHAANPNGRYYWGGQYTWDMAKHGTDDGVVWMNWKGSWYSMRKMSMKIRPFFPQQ
T1 chain 3: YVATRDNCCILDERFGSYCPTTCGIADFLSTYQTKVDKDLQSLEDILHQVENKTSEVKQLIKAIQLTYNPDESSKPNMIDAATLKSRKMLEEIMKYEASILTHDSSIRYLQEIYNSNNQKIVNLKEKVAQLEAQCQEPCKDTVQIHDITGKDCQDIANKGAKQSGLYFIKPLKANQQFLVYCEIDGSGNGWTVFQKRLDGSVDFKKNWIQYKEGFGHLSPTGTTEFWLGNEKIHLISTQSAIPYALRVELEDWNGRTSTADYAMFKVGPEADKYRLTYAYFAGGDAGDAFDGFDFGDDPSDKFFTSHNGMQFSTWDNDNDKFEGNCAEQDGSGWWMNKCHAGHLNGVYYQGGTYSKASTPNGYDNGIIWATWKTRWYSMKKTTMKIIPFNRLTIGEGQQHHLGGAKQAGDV

## recombinant soluble GPVI extracellular domain, monomer (GPVI-ex) (from UniProt Q9HCN6 21-267) (domain or fragment)
fibrinogen
  Kd: 336 nM
  koff: 0.00394 s⁻¹
  kon: 11700 M⁻¹ s⁻¹

## human GPVI expressed on RBL-2H3 cells (from UniProt Q9HCN6 21-339) (receptor)
collagen
  fold increase in cell adhesion relative to mock-transfected cells: 3 fold

B1: human GPVI expressed on RBL-2H3 cells, Q9HCN6 21-339 (receptor)
chain: QSGPLPKPSLQALPSSLVPLEKPVTLRCQGPPGVDLYRLEKLSSSRYQDQAVLFIPAMKRSLAGRYRCSYQNGSLWSLPSDQLELVATGVFAKPSLSAQPGPAVSSGGDVTLQCQTRYGFDQFALYKEGDPAPYKNPERWYRASFPIITVTAAHSGTYRCYSFSSRDPYLWSAPSDPLELVVTGTSVTPSRLPTEPPSPVAEFSEATAELTVSFTNEVFTTETSRSITASPKESDSPAGPARQYYTKGNLVRICLGAVILIILAGFLAEDWHSRRKRLRHRGRAVQRPLPPLPPLPLTRKSNGGQDGGRQDVHSRGLCS
fibrinogen, P02671
  fold increase in cell adhesion relative to mock-transfected cells: 3 fold
